Article PMC6042779

Molecular target: SRC (UniProt P12931)
Assay: bead-immobilized peptide pulldown of SRC-GST
Details: reference: nonphosphorylated FAK peptide; sites Y397

binding against the reference: gained
Substance: FAK FERM-kinase linker region, 358-409 (from UniProt P34152) pY397 FAK peptide
